Data on three substances can be found in patent US20210340257A1.

Experiment [1] has as its target human B7-H3 (CD276), on cells (human) (UniProt Q5ZPR3). In words: flow chamber attachment of microbubbles to MS1hB7-H3 cells under shear.
For experiment [2] the target is unchanged. In words: parallel-plate flow chamber attachment of microbubbles to MS1 B7-H3+ cells under shear.
For experiment [3] the target is unchanged. In words: cell-based or functional assay.
Experiment [4] addresses mouse B7-H3, on cells (mouse) (UniProt Q8VE98). In words: cell-based or functional assay.
Experiment [5] has as its target recombinant soluble human B7-H3 ectodomain protein (human) (UniProt Q5ZPR3). Put plainly: flow cytometry; antibody on streptavidin magnetic beads, 3 µM soluble B7-H3, detected with APC anti-B7-H3 antibody. A general note: A flow cytometer gives signals particle by particle.
The target is the same in experiment [6]. Put plainly: flow cytometry; unconjugated streptavidin magnetic beads, 3 µM soluble B7-H3, detected with APC anti-B7-H3 antibody.

Sequence of mouse B7-H3, on cells (mouse) (Q8VE98 29-316): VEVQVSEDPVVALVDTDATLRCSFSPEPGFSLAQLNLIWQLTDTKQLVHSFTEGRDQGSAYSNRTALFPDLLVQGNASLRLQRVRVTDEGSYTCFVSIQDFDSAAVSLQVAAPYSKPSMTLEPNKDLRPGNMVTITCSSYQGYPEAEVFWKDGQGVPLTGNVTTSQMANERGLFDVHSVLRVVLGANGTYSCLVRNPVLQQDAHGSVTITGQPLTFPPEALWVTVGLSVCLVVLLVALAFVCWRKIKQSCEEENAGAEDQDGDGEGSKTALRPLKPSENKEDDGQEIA
Sequence of human B7-H3 (CD276), on cells (human) (Q5ZPR3 29-534): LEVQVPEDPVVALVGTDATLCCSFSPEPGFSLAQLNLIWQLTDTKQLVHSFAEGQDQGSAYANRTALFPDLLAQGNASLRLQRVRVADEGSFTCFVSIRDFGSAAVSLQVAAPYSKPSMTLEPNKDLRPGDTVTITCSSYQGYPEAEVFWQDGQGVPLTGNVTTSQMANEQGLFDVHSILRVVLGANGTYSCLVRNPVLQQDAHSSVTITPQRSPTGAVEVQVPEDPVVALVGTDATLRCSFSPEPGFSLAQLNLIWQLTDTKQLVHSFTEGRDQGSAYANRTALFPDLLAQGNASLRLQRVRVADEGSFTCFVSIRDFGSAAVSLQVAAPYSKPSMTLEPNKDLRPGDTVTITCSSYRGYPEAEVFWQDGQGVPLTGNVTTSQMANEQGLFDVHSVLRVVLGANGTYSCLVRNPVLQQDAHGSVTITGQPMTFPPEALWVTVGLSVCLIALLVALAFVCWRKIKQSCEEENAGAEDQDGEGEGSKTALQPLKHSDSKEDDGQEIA

“MBNon-targeted (unconjugated streptavidin-coated microbubbles) (from UniProt P22629 37-163)”: the microbubbles attached per cell in experiment [1] and in experiment [2] was 0.5 MB/cell in each case.
In experiment [3], “biotinylated anti-B7-H3 antibody (eBiosciences, clone M3.2D7)” gave a US molecular imaging signal, orthotopic MDA-MB-231 tumors co-implanted with MS1hB7-H3 cells of 8.2 a.u. In experiment [4], the US molecular imaging signal, mammary tumors of MMTV-PyMT transgenic mice is 7.2 a.u; the in vivo ultrasound molecular imaging signal of tumors (transgenic mouse model) amounted to 4.82 a.u; the targeted imaging signal in transgenic mice with breast tumors was found to be 6.22 a.u. The microbubbles attached per cell in experiment [1] was 9.8 MB/cell. Moreover, the microbubbles attached per cell in experiment [2] stood at 9.79 MB/cell. Also, the % binding in experiment [5] amounted to 81%.
With “unconjugated streptavidin magnetic beads (from UniProt P22629 37-163)”, in experiment [6], the % binding came to 1%.
